Patent US20210403506A1 (XDCEXPLORER SHANGHAI, published 2021)
Where two headings read alike, the source gives them in different places. One block for each binder: values may come before it. Numbered stars: 1 amine (or outer) side, 2 acyl side, 3 side chain; on linkers, the order of the positions; unused ones are H or OH. Square brackets hold non-standard residues; d marks the D form. Primed or numbered codes have the meaning given here. Ends that are not written are not given here. * marks the point of attachment. TP5C = (S)-4,5,6,7-tetrahydrothieno[2,3-c]pyridine-5-carboxylic acid, O=C([C@@H]1Cc2ccsc2CN1[*:1])[*:2]; TP6C = (S)-4,5,6,7-tetrahydrothieno[2,3-c]pyridine-6-carboxylic acid, O=C([C@@H]1Cc2ccsc2CN1[*:1])[*:2]; Diphenylacetyl = O=C(C(c1ccccc1)c1ccccc1)*; dNMeY = CN[C@H](Cc1ccc(O)cc1)C(=O)O; Hydrocinnamoyl = O=C(CCc1ccccc1)*; 3‑phenylpropyl = c1ccc(CCC*)cc1; Tic = O=C(O)[C@@H]1Cc2ccccc2CN1; NMeL = CN[C@@H](CC(C)C)C(=O)O; NMeS = CN[C@@H](CO)C(=O)O; Nle = CCCC[C@H](N)C(=O)O; dTi1c = not defined here; Nva = CCC[C@H](N)C(=O)O; Thz′ = not defined here

Tests used:
[1] = target: T1, human Chemokine like receptor 1 (human, UniProt Q99788 1-373); assay: cell-based or functional assay
T1 sequence (looked up): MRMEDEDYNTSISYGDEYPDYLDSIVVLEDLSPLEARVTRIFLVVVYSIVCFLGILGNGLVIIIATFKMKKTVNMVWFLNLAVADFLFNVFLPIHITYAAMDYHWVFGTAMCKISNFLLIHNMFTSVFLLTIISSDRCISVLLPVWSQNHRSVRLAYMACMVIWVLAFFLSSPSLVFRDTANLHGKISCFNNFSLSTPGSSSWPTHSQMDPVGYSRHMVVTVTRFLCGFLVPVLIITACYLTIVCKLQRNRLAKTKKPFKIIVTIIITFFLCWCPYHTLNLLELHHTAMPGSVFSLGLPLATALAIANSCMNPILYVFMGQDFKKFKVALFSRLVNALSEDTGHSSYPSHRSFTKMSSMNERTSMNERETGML

[2] = target: T1, human Chemokine like receptor 1; assay: cell-based or functional assay; remark: listed apart in the source

Binder: {5‑phenylpentanoyl}-[dY]FLP[dS]QF[dA][Tic]S-OH [YW-76]
EC50 (µM), activation of Tango CMKLR1-bla U2OS cells [1]: 0.043 µM

Binder: {4‑biphenylacetyl}-[dY]FLP[dS]QF[dA][Tic]S-OH [YW-77]
EC50 (µM), activation of Tango CMKLR1-bla U2OS cells [1]: 0.053 µM

Binder: {2,3‑dihydroxybenzoyl}-[dY]FLP[dS]QF[dA][Tic]S-OH [YW-127]
EC50 (µM), activation of Tango CMKLR1-bla U2OS cells [1]: 0.01 µM

Binder: phenethylcarbamoyl-[dY]FLP[dS]QF[dA][Tic]S-OH [YW-72]
EC50 (µM), activation of Tango CMKLR1-bla U2OS cells [1]: 0.045 µM

Binder: {3,5‑dihydroxybenzoyl}-[dY]FLP[dS]QF[dA][Tic]S-OH [YW-79]
EC50 (µM), activation of Tango CMKLR1-bla U2OS cells [1]: 0.0047 µM

Binder: [dY]F[Nva]P[dS]QF[dA][Tic]S [YW-196]
EC50 (µM), activation of Tango CMKLR1-bla U2OS cells [1]: 0.039 µM

Binder: {2,6‑dihydroxybenzoyl}-[dY]FLP[dS]QF[dA][Tic]S-OH [YW-128]
EC50 (µM), activation of Tango CMKLR1-bla U2OS cells [1]: 0.02 µM

Binder: [dY]FLP[dS]QF[dA][Ti1c]S-OH [YW-150]
EC50 (µM), activation of Tango CMKLR1-bla U2OS cells [1]: 0.062 µM

B1: YW-71 (peptide)
peptide: Hydrocinnamoyl-[dY]FLP[dS]QF[dA][Tic]S-OH
SMILES: CC(C)C[C@H](NC(=O)[C@H](Cc1ccccc1)NC(=O)[C@@H](Cc1ccc(O)cc1)NC(=O)CCc1ccccc1)C(=O)N1CCC[C@H]1C(=O)N[C@H](CO)C(=O)N[C@@H](CCC(N)=O)C(=O)N[C@@H](Cc1ccccc1)C(=O)N[C@H](C)C(=O)N1Cc2ccccc2C[C@H]1C(=O)N[C@@H](CO)C(=O)O
EC50 (µM), activation of Tango CMKLR1-bla U2OS cells [1]: 0.031 µM

B3: YW-159 (peptide)
peptide: [dY]FLP[dS]QF[dA][TP6C]S-OH
modifications: N-terminus assumed
SMILES: CC(C)C[C@H](NC(=O)[C@H](Cc1ccccc1)NC(=O)[C@H](N)Cc1ccc(O)cc1)C(=O)N1CCC[C@H]1C(=O)N[C@H](CO)C(=O)N[C@@H](CCC(N)=O)C(=O)N[C@@H](Cc1ccccc1)C(=O)N[C@H](C)C(=O)N1Cc2sccc2C[C@H]1C(=O)N[C@@H](CO)C(=O)O
EC50 (µM), activation of Tango CMKLR1-bla U2OS cells [1]: 0.018 µM

Binder: [dNMeY]F[NMeL][Thz′][dS]QF[dA][Tic][NMeS] (reading uncertain) [YW-124]
EC50 (µM), activation of Tango CMKLR1-bla U2OS cells [1]: 0.0013 µM

Binder: phenethylcarbamothioyl-[dY]FLP[dS]QF[dA][Tic]S-OH [YW-73]
EC50 (µM), activation of Tango CMKLR1-bla U2OS cells [1]: 0.028 µM

B7: YW-158 (peptide)
peptide: [dY]FLP[dS]QF[dA][TP5C]S-OH
modifications: N-terminus assumed
SMILES: CC(C)C[C@H](NC(=O)[C@H](Cc1ccccc1)NC(=O)[C@H](N)Cc1ccc(O)cc1)C(=O)N1CCC[C@H]1C(=O)N[C@H](CO)C(=O)N[C@@H](CCC(N)=O)C(=O)N[C@@H](Cc1ccccc1)C(=O)N[C@H](C)C(=O)N1Cc2sccc2C[C@H]1C(=O)N[C@@H](CO)C(=O)O
EC50 (µM), activation of Tango CMKLR1-bla U2OS cells [1]: 0.065 µM

B8: YW-151 (peptide)
peptide: [dY]FLP[dS]QF[dA][dTi1c]S-OH
modifications: reading uncertain; also: printed as (D-Tyr)-Phe-Leu-Pro-(D-Ser)-Gln-Phe-(D-Ala)-(D-Ti1c)-Ser
EC50 (µM), activation of Tango CMKLR1-bla U2OS cells [1]: 0.027 µM

More lines, now with the values ahead:

EC50 (µM), activation of Tango CMKLR1-bla U2OS cells [1]: 0.0091 µM
Binder: {2,3,4‑trihydroxybenzoyl}-[dY]FLP[dS]QF[dA][Tic]S-OH [YW-129]

EC50 (µM), activation of Tango CMKLR1-bla U2OS cells [1]: 0.0062 µM
B2: YW-74 (peptide)
peptide: {3‑phenylpropyl}-[dY]FLP[dS]QF[dA][Tic]S-OH
SMILES: CC(C)C[C@H](NC(=O)[C@H](Cc1ccccc1)NC(=O)[C@@H](Cc1ccc(O)cc1)NCCCc1ccccc1)C(=O)N1CCC[C@H]1C(=O)N[C@H](CO)C(=O)N[C@@H](CCC(N)=O)C(=O)N[C@@H](Cc1ccccc1)C(=O)N[C@H](C)C(=O)N1Cc2ccccc2C[C@H]1C(=O)N[C@@H](CO)C(=O)O

EC50 (µM), activation of Tango CMKLR1-bla U2OS cells [2]: 0.019 µM
Binder: [dY]FLP[dS]QF[dA][Tic]S-OH [YW-3]

EC50 (µM), activation of Tango CMKLR1-bla U2OS cells [1]: 0.01 µM
Binder: [dY]F[Nle]P[dS]QF[dA][Tic]S [YW-197]

EC50 (µM), activation of Tango CMKLR1-bla U2OS cells [1]: 0.026 µM
B4: YW-78 (peptide)
peptide: Diphenylacetyl-[dY]FLP[dS]QF[dA][Tic]S-OH
SMILES: CC(C)C[C@H](NC(=O)[C@H](Cc1ccccc1)NC(=O)[C@@H](Cc1ccc(O)cc1)NC(=O)C(c1ccccc1)c1ccccc1)C(=O)N1CCC[C@H]1C(=O)N[C@H](CO)C(=O)N[C@@H](CCC(N)=O)C(=O)N[C@@H](Cc1ccccc1)C(=O)N[C@H](C)C(=O)N1Cc2ccccc2C[C@H]1C(=O)N[C@@H](CO)C(=O)O

EC50 (µM), activation of Tango CMKLR1-bla U2OS cells [1]: 0.034 µM
B5: YW-154 (peptide)
peptide: [dNMeY]FLP[dS]QF[dA][dTi1c]S-OH
modifications: reading uncertain; also: printed as (D-NMe-Tyr)-Phe-Leu-Pro-(D-Ser)-Gln-Phe-(D-Ala)-(D-Ti1c)-Ser

EC50 (µM), activation of Tango CMKLR1-bla U2OS cells [1]: 0.05 µM
Binder: {4‑phenylbutanoyl}-[dY]FLP[dS]QF[dA][Tic]S-OH [YW-75]

EC50 (µM), activation of Tango CMKLR1-bla U2OS cells [1]: 0.0068 µM
B6: YW-189 (peptide)
peptide: [dY]FLP[dS]QF[dA][Tic]S-NH2
modifications: N-terminus assumed
SMILES: CC(C)C[C@H](NC(=O)[C@H](Cc1ccccc1)NC(=O)[C@H](N)Cc1ccc(O)cc1)C(=O)N1CCC[C@H]1C(=O)N[C@H](CO)C(=O)N[C@@H](CCC(N)=O)C(=O)N[C@@H](Cc1ccccc1)C(=O)N[C@H](C)C(=O)N1Cc2ccccc2C[C@H]1C(=O)N[C@@H](CO)C(N)=O
